From patent US20180051072A1 (RPEPTIDE, published 2018)
Blank lines part the entries; values can stand above or below the binder they belong to.

Key:
Aβ(1-40) [1] = target: T1, Aβ(1-40) (human); assay: ELISA; reacts best with peptide that has not crossed through the isoelectric point
T1 construct: Peptide as coated on ELISA plates; its state of aggregation is not specified; also called Aβ-1-40 peptide; Beta-Amyloid 1-40

Aβ(1-40) [2] = target: T1, Aβ(1-40); assay: ELISA, peptide coated on plate
[3] = target: T2, Beta-Amyloid 1-40 monomer (human); assay: western blot, 7E7 as primary antibody (FIG. 20)
T2 construct: also called Beta-Amyloid Monomer; Aβ monomer (1-40)
T2 sequence (peptide, as listed by the source): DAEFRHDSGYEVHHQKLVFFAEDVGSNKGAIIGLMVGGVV
Experimental: (§1) Western blots were performed to determine the extent of 7E7 binding to human Beta-Amyloid, specifically to determine if the antibody binds to Aβ aggregates, Aβ monomer, or both. This procedure applies to any Aβ peptide or peptide fragment which is composed of up to and including 40 or 42 amino acids. Before beginning the assay the vials of Aβ to be used were treated with 1,1,1,3,3,3-Hexafluoro-2-propanol (Aldrich Chemistry #105228-100G) (also known as HFIP) at a rate of 150 μL HFIP per 0.5 mg peptide). Once the HFIP was added to the lyophilized pellet the vials were sonicated for exactly one minute, or until the solution was clear. Once the dissolved peptide had taken on a clear appearance, the HFIP was gently evaporated out of each vial by passing Argon gas directly into the vial with the rubber stopper open just enough to allow the gasses and fumes to escape. When the inside of the vials was free of any remaining liquid, the remaining peptide is dissolved with 1% Ammonium Hydroxide at a rate which yields a peptide concentration of 1 mg/mL. 10 μL of this solution was mixed with 90μL of Milli-Q water, and from that 100 μL mixture 20 μL was added to 50 μL XT Sample Buffer (Bio-Rad #161-0791) and 130μL Milli-Q water for a final sample volume of 200 μL. No 2-Mercaptoethanol was added, and the samples were not heated. […] Instead the mixture was gently mixed by using a pipette. […]

[4] = target: T3, Beta-Amyloid 1-42 monomer (human); assay: western blot, 7E7 as primary antibody (FIG. 20)
T3 construct: also called Beta-Amyloid Monomer; Aβ monomer (1-42)
T3 sequence (peptide, as listed by the source): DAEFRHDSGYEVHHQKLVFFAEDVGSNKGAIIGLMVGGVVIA
Experimental: as §1

Aβ(1-42) = target: T4, Aβ(1-42) (human); assay: ELISA, varying peptide amounts, 7E7 at 1:1,000 (FIG. 11)
T4 construct: its state of aggregation is not specified; also called Beta-Amyloid 1-42; Aβ42

binding result (Aβ(1-40) [1]): binds
B1: monoclonal antibody 6C2 (antibody, V domains shown)
VH: EVQLQQSGPELVKPGASVKISCKASGYSFTGYFLSWVKQSHGRSLEWIGRINPYNGHTFYNQKFKDKATLTVDKSSTTAHMELLSLTSEDSAVYYCAGSDSWGQGTTLTVSS
VL: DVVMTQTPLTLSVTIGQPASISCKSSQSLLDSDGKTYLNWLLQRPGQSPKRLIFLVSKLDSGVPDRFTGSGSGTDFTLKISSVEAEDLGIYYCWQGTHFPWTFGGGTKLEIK
notes: Hybridoma monoclonal antibody; also called mAb 6C2; Beta Amyloid 6C2

binding result (Aβ(1-40) [2]): binds | binding result [3]: binds | binding result [4]: binds | binding result (Aβ(1-42)): binds
B2: monoclonal antibody 7E7 (antibody, V domains shown)
VH: EVKLVESGGGLVQPGSSQRLSCATSGFTFTDYYMSWVRQPPGKALEWLGFIRNKTKRYTTEYSASVKGRFTISRDNSQSILYLQMNTLRAEDSATYYCARDDPYARFAYWGQGTLVTVSA
VL: DVVMTQTPLSLPVSLGDQASISCRSGQSLVHRNGNTYLHWYLQKPGQSPKLLIYKVSNRFSGVPDRFSGSGTGTDFTLKISRVEAEDLGVYFCSQSTHVPFTFGSGTKLEIK
notes: Hybridoma monoclonal antibody raised against 1-42 rubredoxin fusion, detected with goat anti-mouse IgG (H+L); also called mAb 7E7; Beta Amyloid 7E7
